Source: paper PMC8229532 (Structure (London, England : 1993), 2010)

Biological target: the molecule itself
Assay: crystal structure

B1: Phd (prevents host death) antitoxin of bacteriophage P1 (natural protein, UniProt Q06253 1-73, looked up)
chain: MQSINFRTARGNLSEVMNNVEAGEEVEITRRGREPAVIASKATFEAYKKAALDAEFASLFDTLDSTNKELVNR
modifications: selenomethionine (expressed in MJ9 minimal medium supplemented with selenomethionine)
Does B1 bind?
Result: binds
